Test results reported in patent EP4682170A1.

Experiments:
[1] = molecular target: human CD3 on T cells of human peripheral blood mononuclear cells (human) (UniProt P07766); experiment: cell-based or functional assay
[2] = molecular target: human CD3εγ (human) (UniProt P07766); experiment: SPR, Biacore T200; human CD3εγ immobilised on CM5 chip, antibody as analyte
[3] = molecular target: human CD3εδ (human) (UniProt P07766); experiment: SPR, Biacore T200; human CD3εδ immobilised on CM5 chip, antibody as analyte (Example 2-3)
[4] = molecular target: human CD3εδ (human) (UniProt P07766); experiment: SPR, Biacore T200; ratio between the KD values on CD3εδ and CD3εγ
[5] = molecular target: human CD3εδ (human) (UniProt P07766); experiment: SPR, Biacore T200; human CD3εδ immobilised on CM5 chip, antibody as analyte

Sequence of human CD3εδ (human) (P07766 23-126, stated change not applied, chain 1 of 2): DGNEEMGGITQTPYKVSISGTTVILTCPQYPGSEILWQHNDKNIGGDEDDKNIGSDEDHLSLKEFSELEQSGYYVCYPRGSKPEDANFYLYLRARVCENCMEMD
Sequence of human CD3εδ (human) (P04234 22-105, stated change not applied, chain 2 of 2, further chain): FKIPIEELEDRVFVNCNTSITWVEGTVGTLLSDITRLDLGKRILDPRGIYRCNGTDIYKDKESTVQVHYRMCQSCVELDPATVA
Sequence of human CD3 on T cells of human peripheral blood mononuclear cells (human) (P07766 23-207, chain 1 of 3): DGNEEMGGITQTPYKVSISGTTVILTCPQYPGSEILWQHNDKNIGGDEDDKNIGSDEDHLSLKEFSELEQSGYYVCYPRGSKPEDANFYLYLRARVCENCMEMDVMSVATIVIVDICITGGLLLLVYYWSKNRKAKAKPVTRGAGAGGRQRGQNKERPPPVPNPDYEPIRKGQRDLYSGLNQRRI
Sequence of human CD3 on T cells of human peripheral blood mononuclear cells (human) (P04234 22-171, chain 2 of 3, further chain): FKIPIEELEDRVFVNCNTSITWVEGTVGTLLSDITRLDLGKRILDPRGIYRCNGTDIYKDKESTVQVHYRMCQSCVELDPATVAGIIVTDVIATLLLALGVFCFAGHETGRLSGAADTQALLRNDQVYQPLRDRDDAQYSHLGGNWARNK
Sequence of human CD3 on T cells of human peripheral blood mononuclear cells (human) (P09693 23-182, chain 3 of 3, further chain): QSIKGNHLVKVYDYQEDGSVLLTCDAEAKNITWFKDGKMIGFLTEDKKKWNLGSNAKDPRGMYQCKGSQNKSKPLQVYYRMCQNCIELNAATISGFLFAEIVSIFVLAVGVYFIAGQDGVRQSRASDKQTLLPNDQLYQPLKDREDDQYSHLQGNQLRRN
Sequence of human CD3εγ (human) (P07766 23-126, chain 1 of 2): as the sequence (P07766 23-126, stated change not applied, chain 1 of 2) above
Sequence of human CD3εγ (human) (P09693 23-116, chain 2 of 2, further chain): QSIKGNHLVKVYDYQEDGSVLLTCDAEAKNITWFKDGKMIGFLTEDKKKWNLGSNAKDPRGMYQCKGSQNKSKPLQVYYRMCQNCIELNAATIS

IFNγ release, EC50 nM [1]: 0.003 nM
IFNγ release, Maximum concentration [1]: 16 ng/mL
T cell activation (CD3+ CD8+ CD69+), human PBMC alone without target cells [1]: 60%
Kd [2]: 0.272 nM
Kd [3]: 0.0341 nM
ratio of the binding strength to CD3εδ / binding strength to CD3εγ [4]: 19.3 fold
Kd [5]: 0.0141 nM
Substance: CD3 (UCHT1)-binding monoclonal antibody
Death of cancer cells, EC50 nM (MDA-MB-231 + human PBMC, 48 h) [1]: 0.0005 nM
Death of cancer cells, Emax (%) [1]: 46%
